Assay results reported in paper PMC3663513.

Biological target: Pseudo-nitzschia multiseries ferritin (Pseudo-nitzschia multiseries)
Assay: crystal structure; crystals of PmFTN grown by vapor diffusion (0.1 M sodium acetate pH 5.5, ammonium sulfate, NaCl), aerobic or anaerobic, soaked in 2 mM Fe(II) or 2 mM zinc sulfate; 24-mer shell built from 8 (P23) or 6 (P42(1)2) subunits in the asymmetric unit

stoichiometry N: 24 subunits
Substance: Pseudo-nitzschia multiseries ferritin (natural protein)
